Data from patent publication US9669057.

Target: mouse CD40 (mouse) (UniProt P27512)
Test: cell-based or functional assay

UniProt P27512, sequence (P27512 20-289): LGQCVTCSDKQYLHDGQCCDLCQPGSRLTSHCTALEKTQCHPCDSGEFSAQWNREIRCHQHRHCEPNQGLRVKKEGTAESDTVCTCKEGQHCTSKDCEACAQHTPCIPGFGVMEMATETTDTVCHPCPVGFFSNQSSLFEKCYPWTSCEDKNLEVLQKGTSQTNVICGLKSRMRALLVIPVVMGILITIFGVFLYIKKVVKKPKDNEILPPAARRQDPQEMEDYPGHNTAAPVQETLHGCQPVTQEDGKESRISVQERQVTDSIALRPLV

anti-mouse CD40 mAb (HM40-3) (antibody)
fold increase in frequency of cytoplasmic IL-10+ adult blood B cells, 48 h culture against 5 h L+PIM culture: 6 to 9 fold | reduction of LPS-induced IL-10 secretion by spleen B cells, ELISA of culture supernatant: > 68%
